Test results taken from patent publication US20160158369A1, “PHARMACEUTICAL COMPOSITION FOR RESPIRATORY ADMINISTRATION” (SEIKAGAKU CORPORATION, priority 2013, published 2016).
Several values for one entry are separate records, joined by “and”; a condition that tells them apart may be missing. Equal values may be shown once.

Assay: Drug dissociation test: polysaccharide derivative in buffer solution, 36°C, 1 week, HPLC
Assay type: physicochemical
Experimental: In the examples relating to drug dissociation test, the drug dissociation ratio was evaluated as described below.
Sodium dihydrogen phosphate dihydrate (780 mg (5.0 mmol)) was dissolved in 500 mL of distilled water to give a liquid A. Separately, disodium hydrogen phosphate dodecahydrate (1.79 g (5.0 mmol)) was dissolved in 500 mL of distilled water to give a liquid B. By mixing the liquid A and liquid B at ratio of 2:3, a phosphate buffer solution of pH 7.5 was prepared.
0.62 g (10 mmol) of boric acid and 0.75 g (10 mmol) of potassium chloride were weighed and dissolved in 500 mL of distilled water to give a liquid C. Separately, by diluting 0.1 N sodium hydroxide solution with distilled water (×10 dilution), a liquid D was prepared.
50 mL of the liquid C and 7 mL of the liquid D were added to a 100 mL mess flask, and according to dilution to 100 mL with distilled water, a borate buffer solution of pH 8.0 was prepared. Furthermore, 50 mL of the liquid C and 40 mL of the liquid D were added to a 100 mL mess flask, and according to mess-up to 100 mL with distilled water, a borate buffer solution of pH 9.0 was prepared.
Each polysaccharide derivative obtained from above was dissolved in a buffer solution at each pH so as to have a concentration of 5 mg/10 mL, and heated for 1 week in an incubator at 36° C. Then, the drug dissociation ratio during the incubation was evaluated every 24 hours by liquid chromatography (HPLC).
The evaluation was performed by measuring the ratio between the drug amount remained in a polysaccharide derivative and the dissociated drug amount according to use of a size exclusion chromatography column (manufactured by TOSOH, TSKgel α-6000, 7.8 mmI.D.×30 cm).
Detailed conditions for the liquid chromatography are as follows.
Analysis time: 40 minutes
Solution for elution: acetonitrile (for HPLC):physiological saline=1:2
Detector: UV detector (240 nm)

Row | Substance | Dissociation ratio (%/day) (pH 7.4, 36°C) | drug dissociation ratio (pH 7.4, 36°C, day 0) [%] | drug dissociation ratio (pH 7.4, 36°C, day 1) [%] | drug dissociation ratio (pH 7.4, 36°C, day 2) [%] | drug dissociation ratio (pH 7.4, 36°C, day 3) [%] | drug dissociation ratio (pH 7.4, 36°C, day 4) [%] | drug dissociation ratio (pH 7.4, 36°C, day 5) [%] | drug dissociation ratio (pH 7.4, 36°C, day 6) [%] | drug dissociation ratio (pH 7.4, 36°C, day 7) [%] | Dissociation ratio (%/day) (pH 8.0, 36°C) | drug dissociation ratio (pH 8.0, 36°C, day 0) [%] | drug dissociation ratio (pH 8.0, 36°C, day 1) [%] | drug dissociation ratio (pH 8.0, 36°C, day 2) [%] | drug dissociation ratio (pH 8.0, 36°C, day 3) [%] | drug dissociation ratio (pH 8.0, 36°C, day 4) [%] | drug dissociation ratio (pH 8.0, 36°C, day 5) [%] | drug dissociation ratio (pH 8.0, 36°C, day 6) [%] | drug dissociation ratio (pH 8.0, 36°C, day 7) [%] | further results
1 | Chondroitin Sulfate Introduced with 21-β-Alanyl-Budesonide (20 kDa) [Compound vb] | 0.9 %/day | 0.3 | 1.2 | 2.4 | 3.0 | 3.6 | 4.0 | 5.1 | 6.4 | 1.5 %/day | 0.2 | 1.2 | 1.7 | 2.9 | 5.5 | 7.6 | 8.9 | 10.8 | 
2 | Chondroitin Sulfate Introduced with 11-(2-Fluoro-β-Alanyl)-Propionic Acid Fluticasone [Compound viii] | 3.1 %/day | 0.1 | 7.9 | 4.9 | 12.7 | 8.4 | 15.2 | 14.3 | 21.8 | 10.1 %/day | 0.3 | 14.8 | 26.3 | 27.1 | 29.8 | 64.5 | 47.4 | 70.9 | 
3 | Chondroitin Sulfate Introduced with 11-β-Alanyl-Propionic Acid Fluticasone [Compound vii] | 0.1 %/day | 0.0 | 0.0 | 0.0 | 0.2 | 0.4 | 0.4 | 0.4 | 0.4 | 0.2 %/day | 0.0 | 0.3 | 0.6 | 0.7 | 0.7 | 1.0 | 1.0 | 1.1 | 
4 | Carboxymethyl Cellulose (500) Introduced with 21-β-Alanyl-Budesonide [Compound xxa] | 2.8 %/day and 2.6 %/day |  |  |  |  |  |  |  |  | 5.7 %/day and 5.5 %/day | 2.7 | 9.9 | 16.4 | 22.1 | 27.1 | 31.7 | 35.9 | 39.6 | Dissociation ratio (%/day) (pH 7.5, 36°C): 2.8 %/day; drug dissociation ratio (pH 7.5, 36°C, day 0): 2.0%; drug dissociation ratio (pH 7.5, 36°C, day 1): 4.8%; drug dissociation ratio (pH 7.5, 36°C, day 2): 7.4%; drug dissociation ratio (pH 7.5, 36°C, day 3): 10.0%; drug dissociation ratio (pH 7.5, 36°C, day 4): 12.6%; drug dissociation ratio (pH 7.5, 36°C, day 5): 15.0%; drug dissociation ratio (pH 7.5, 36°C, day 6): 17.4%; drug dissociation ratio (pH 7.5, 36°C, day 7): 19.8%
